# Substrate: COc1cc(-c2ccc(N)c(OC)c2)ccc1N
# Experiment: purified protein
# Format: biochemical, Mycolicibacterium smegmatis
# Conditions: 6.6 mM t-BuOOH, 4.5 μM Cu(II)
# [1] = 6-PGLac (parent), 1.25 μM protein, MES pH 6.5, 150 mM NaCl, 25 °C, free copper background subtracted
# [2] = D131N (reversion of parent N131D = natural sequence), 1.25 μM protein, MES pH 6.5, 150 mM NaCl, 25 °C, free copper background subtracted
# [3] = Y69F on the N131D parent, MES pH 6.5, 25 °C
# [4] = H9A on the N131D parent, MES pH 6.5, 25 °C
# [5] = Y69W on the N131D parent, MES pH 6.5, 25 °C
# [6] = Y69L on the N131D parent, MES pH 6.5, 25 °C
# [7] = H95A on the N131D parent, MES pH 6.5, 25 °C
protein,measurement,setting,value
"6-phosphogluconolactonase (6-PGLac; Cu·6-PGLac) (Mycolicibacterium smegmatis MC2 155; N131D) (protein, Strep-tag II, expressed in E. coli, purified, loaded with Cu(II)) MSDTVIERHADTAALVAAAGDRLVDAISSAIGERGQATIVLTGGGTGIGLLKRVRERSGEIDWSKVHIYWGDERFVPQDDDERNDKQAREALLDHIGIPPVNVHAMAASDGEFGDDLEAAAAGYAQLLSADFDSSVPGFDVHLLGMGGEGHVNSLFPDTDAVRETERLVVGVSDSPKPPPRRITLTLPAVQNSREVWLVVSGEAKADAVAAAVGGADPVDIPAAGAVGRERTVWLVDEAAAAKL",Km,[1],11 ± 3 µM
same,kcat,[1],78 ± 4 × 10^-3 s^-1
same,kcat/Km,[1],6900 ± 2000 M⁻¹ s⁻¹
same,Km,[2],21 ± 6 µM
same,kcat,[2],150 ± 10 × 10^-3 s^-1
same,kcat/Km,[2],7200 ± 2000 M⁻¹ s⁻¹
"6-phosphogluconolactonase (6-PGLac; Cu·6-PGLac) (Mycolicibacterium smegmatis MC2 155; N131D/Y69F) (protein, Strep-tag II, expressed in E. coli, purified, loaded with Cu(II)) MSDTVIERHADTAALVAAAGDRLVDAISSAIGERGQATIVLTGGGTGIGLLKRVRERSGEIDWSKVHIFWGDERFVPQDDDERNDKQAREALLDHIGIPPVNVHAMAASDGEFGDDLEAAAAGYAQLLSADFDSSVPGFDVHLLGMGGEGHVNSLFPDTDAVRETERLVVGVSDSPKPPPRRITLTLPAVQNSREVWLVVSGEAKADAVAAAVGGADPVDIPAAGAVGRERTVWLVDEAAAAKL",Km,[3],36 ± 8 µM
same,kcat,[3],100 ± 7 × 10^-3 s^-1
same,kcat/Km,[3],2900 ± 700 M⁻¹ s⁻¹
"6-phosphogluconolactonase (6-PGLac; Cu·6-PGLac) (Mycolicibacterium smegmatis MC2 155; H9A/N131D) (protein, Strep-tag II, expressed in E. coli, purified, loaded with Cu(II)) MSDTVIERAADTAALVAAAGDRLVDAISSAIGERGQATIVLTGGGTGIGLLKRVRERSGEIDWSKVHIYWGDERFVPQDDDERNDKQAREALLDHIGIPPVNVHAMAASDGEFGDDLEAAAAGYAQLLSADFDSSVPGFDVHLLGMGGEGHVNSLFPDTDAVRETERLVVGVSDSPKPPPRRITLTLPAVQNSREVWLVVSGEAKADAVAAAVGGADPVDIPAAGAVGRERTVWLVDEAAAAKL",Km,[4],12 ± 5 µM
same,kcat,[4],80 ± 6 × 10^-3 s^-1
same,kcat/Km,[4],6500 ± 3000 M⁻¹ s⁻¹
"6-phosphogluconolactonase (6-PGLac; Cu·6-PGLac) (Mycolicibacterium smegmatis MC2 155; N131D/Y69W) (protein, Strep-tag II, expressed in E. coli, purified, loaded with Cu(II)) MSDTVIERHADTAALVAAAGDRLVDAISSAIGERGQATIVLTGGGTGIGLLKRVRERSGEIDWSKVHIWWGDERFVPQDDDERNDKQAREALLDHIGIPPVNVHAMAASDGEFGDDLEAAAAGYAQLLSADFDSSVPGFDVHLLGMGGEGHVNSLFPDTDAVRETERLVVGVSDSPKPPPRRITLTLPAVQNSREVWLVVSGEAKADAVAAAVGGADPVDIPAAGAVGRERTVWLVDEAAAAKL",Km,[5],4.8 ± 2 µM
same,kcat,[5],33 ± 2 × 10^-3 s^-1
same,kcat/Km,[5],6900 ± 3000 M⁻¹ s⁻¹
"6-phosphogluconolactonase (6-PGLac; Cu·6-PGLac) (Mycolicibacterium smegmatis MC2 155; N131D/Y69L) (protein, Strep-tag II, expressed in E. coli, purified, loaded with Cu(II)) MSDTVIERHADTAALVAAAGDRLVDAISSAIGERGQATIVLTGGGTGIGLLKRVRERSGEIDWSKVHILWGDERFVPQDDDERNDKQAREALLDHIGIPPVNVHAMAASDGEFGDDLEAAAAGYAQLLSADFDSSVPGFDVHLLGMGGEGHVNSLFPDTDAVRETERLVVGVSDSPKPPPRRITLTLPAVQNSREVWLVVSGEAKADAVAAAVGGADPVDIPAAGAVGRERTVWLVDEAAAAKL",Km,[6],82 ± 10 µM
same,kcat,[6],490 ± 30 × 10^-3 s^-1
same,kcat/Km,[6],5900 ± 900 M⁻¹ s⁻¹
"6-phosphogluconolactonase (6-PGLac; Cu·6-PGLac) (Mycolicibacterium smegmatis MC2 155; H95A/N131D) (protein, Strep-tag II, expressed in E. coli, purified, loaded with Cu(II)) MSDTVIERHADTAALVAAAGDRLVDAISSAIGERGQATIVLTGGGTGIGLLKRVRERSGEIDWSKVHIYWGDERFVPQDDDERNDKQAREALLDAIGIPPVNVHAMAASDGEFGDDLEAAAAGYAQLLSADFDSSVPGFDVHLLGMGGEGHVNSLFPDTDAVRETERLVVGVSDSPKPPPRRITLTLPAVQNSREVWLVVSGEAKADAVAAAVGGADPVDIPAAGAVGRERTVWLVDEAAAAKL",Km,[7],17 ± 5 µM
same,kcat,[7],80 ± 6 × 10^-3 s^-1
same,kcat/Km,[7],4600 ± 2000 M⁻¹ s⁻¹

# Reference: article PMC5707476, “Enzyme repurposing of a hydrolase as an emergent peroxidase upon metal binding” (Chemical Science, 2015)
